In patent US20200291135A1 (INSPIRNA, published 2020):

Columns and labels:
[1] = molecular target: T1, murine MERTK extracellular domain conjugated to an IgG Fc domain (murine, UniProt Q60805 19-497); assay: competition ELISA: soluble mMer-Fc (varied) equilibrated with z10, free z10 caught on plate-coated hMER
T1 construct: extracellular domain; also called mMER; not shown: IgG Fc domain
T1 sequence (looked up): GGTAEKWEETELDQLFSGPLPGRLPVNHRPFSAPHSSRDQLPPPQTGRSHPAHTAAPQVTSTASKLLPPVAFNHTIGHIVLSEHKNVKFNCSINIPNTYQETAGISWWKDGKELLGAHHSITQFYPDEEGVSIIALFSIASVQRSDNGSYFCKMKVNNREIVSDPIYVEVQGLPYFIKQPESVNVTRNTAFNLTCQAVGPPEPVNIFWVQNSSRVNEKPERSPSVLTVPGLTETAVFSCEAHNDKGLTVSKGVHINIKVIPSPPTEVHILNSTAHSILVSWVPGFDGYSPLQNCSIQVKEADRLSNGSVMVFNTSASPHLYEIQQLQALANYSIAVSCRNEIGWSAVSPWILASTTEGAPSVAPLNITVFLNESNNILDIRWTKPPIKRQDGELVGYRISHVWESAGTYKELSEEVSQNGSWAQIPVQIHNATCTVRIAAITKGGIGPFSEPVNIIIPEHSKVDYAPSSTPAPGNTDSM
Experimental: (§1) Plates were washed three times with PBS 0.1% Tween and blocked with 3% non-fat dry skim milk in PBS for 2 h.
(§2) During the saturation step, dilutions of the antigen hAxl (RnD Systems, 154-AL-100), hTyro3 (RnD Systems, 859-DK-100) or mMER (RnD Systems, 591-MR-100)] were prepared at 50 nM as the highest concentration, and serially diluted 1:1 to 0.098 nM in PBS. […] Then, the saturated plate was washed three times with PBS 0.1% Tween and the antigen-antibody mixture was added to the wells in duplicate and incubated for 1 h at room temperature. The plate was then washed three times with PBS 0.1% Tween and incubated with anti-human Alkaline Phosphatase antibody (Sigma, SAB 3701248) at a dilution of 1:3000 in PBS for 1 h at room temperature. After washing three times with PBS 0.1% Tween, 100 uL of Alkaline Phosphatase Yellow (pNPP) liquid substrate system (Sigma, P7998) was added in each well and incubated for 70 min at room temperature. Plates were read at 405 nm and at 570 nm, to correct plate inconsistencies, using Glomax Discover System from Promega The absorbance was plotted as a function of antigen concentration and the Kd was calculated using GraphPad Prism 7.0c.

[2] = molecular target: T2, human Axl extracellular domain conjugated to an IgG Fc domain (human, UniProt P30530 26-451); assay: competition ELISA: soluble hAxl-Fc (varied) equilibrated with z10, free z10 caught on plate-coated hMER
T2 construct: extracellular domain; also called hAxl; human Ax1; not shown: IgG Fc domain
T2 sequence (looked up): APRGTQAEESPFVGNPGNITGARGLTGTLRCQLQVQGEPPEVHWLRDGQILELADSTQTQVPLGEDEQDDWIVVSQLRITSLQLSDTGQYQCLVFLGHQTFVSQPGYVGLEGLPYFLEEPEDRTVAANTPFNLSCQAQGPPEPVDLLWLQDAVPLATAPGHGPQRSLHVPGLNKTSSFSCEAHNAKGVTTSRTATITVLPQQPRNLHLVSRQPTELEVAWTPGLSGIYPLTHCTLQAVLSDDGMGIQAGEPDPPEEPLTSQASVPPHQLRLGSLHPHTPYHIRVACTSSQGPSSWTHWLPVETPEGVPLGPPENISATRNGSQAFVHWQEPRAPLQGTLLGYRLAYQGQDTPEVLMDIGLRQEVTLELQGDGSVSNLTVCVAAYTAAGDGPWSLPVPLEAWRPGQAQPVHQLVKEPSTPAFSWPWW
Experimental: as §1, §2

[3] = molecular target: T3, human Tyro3 extracellular domain (human, UniProt Q06418 41-429); assay: competition ELISA: soluble hTyro3-Fc (varied) equilibrated with z10, free z10 caught on plate-coated hMER
T3 construct: extracellular domain; also called hTyro3
T3 sequence (looked up): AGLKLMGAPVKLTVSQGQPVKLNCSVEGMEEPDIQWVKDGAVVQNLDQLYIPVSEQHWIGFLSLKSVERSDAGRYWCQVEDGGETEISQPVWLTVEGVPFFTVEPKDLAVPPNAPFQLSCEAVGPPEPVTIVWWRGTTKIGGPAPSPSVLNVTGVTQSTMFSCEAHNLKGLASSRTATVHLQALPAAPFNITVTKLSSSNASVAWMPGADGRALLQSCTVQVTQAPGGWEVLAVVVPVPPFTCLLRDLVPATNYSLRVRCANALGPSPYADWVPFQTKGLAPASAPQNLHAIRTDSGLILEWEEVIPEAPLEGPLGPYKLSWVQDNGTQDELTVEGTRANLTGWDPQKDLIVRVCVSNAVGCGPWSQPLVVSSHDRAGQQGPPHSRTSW
Experimental: as §1, §2

binding result [1]: no binding (tested: 50 nM) | binding result [2]: no binding (tested: 50 nM) | binding result [3]: no binding (tested: 50 nM)
B1: z10 antibody (antibody, human IgG1, kappa, V domains shown)
VH: QVQLVQSGAEVKKPGASVKVSCKASGYTFTNYGMNWVRQAPGQGLEWMGWINTYTGEPTYADDFKGRVTFTTDTSTSTAYMELRSLRSDDMAVYYCARKSTVVSRYFDVWGQGTTVTVSS
VL: DIQMTQSPSFLSASVGDRVTITCKASQDVGDAVTWYQQKPGKAPKLLIYWASTRHTGVPDRFSGSGSGTDFTLTISSLQPEDFATYYCQQYRSYPLTFGQGTKLEIKR
notes: also called MERTK (z10) antibody
